PMC8158962, “Modulation of fungal virulence through CRZ1 regulated F-BAR-dependent actin remodeling and endocytosis in chickpea infecting phytopathogen Ascochyta rabiei”

Target: T1, His-ArCRZ1 (Ascochyta rabiei, UniProt A0A163H1V7 1-755)
T1 sequence: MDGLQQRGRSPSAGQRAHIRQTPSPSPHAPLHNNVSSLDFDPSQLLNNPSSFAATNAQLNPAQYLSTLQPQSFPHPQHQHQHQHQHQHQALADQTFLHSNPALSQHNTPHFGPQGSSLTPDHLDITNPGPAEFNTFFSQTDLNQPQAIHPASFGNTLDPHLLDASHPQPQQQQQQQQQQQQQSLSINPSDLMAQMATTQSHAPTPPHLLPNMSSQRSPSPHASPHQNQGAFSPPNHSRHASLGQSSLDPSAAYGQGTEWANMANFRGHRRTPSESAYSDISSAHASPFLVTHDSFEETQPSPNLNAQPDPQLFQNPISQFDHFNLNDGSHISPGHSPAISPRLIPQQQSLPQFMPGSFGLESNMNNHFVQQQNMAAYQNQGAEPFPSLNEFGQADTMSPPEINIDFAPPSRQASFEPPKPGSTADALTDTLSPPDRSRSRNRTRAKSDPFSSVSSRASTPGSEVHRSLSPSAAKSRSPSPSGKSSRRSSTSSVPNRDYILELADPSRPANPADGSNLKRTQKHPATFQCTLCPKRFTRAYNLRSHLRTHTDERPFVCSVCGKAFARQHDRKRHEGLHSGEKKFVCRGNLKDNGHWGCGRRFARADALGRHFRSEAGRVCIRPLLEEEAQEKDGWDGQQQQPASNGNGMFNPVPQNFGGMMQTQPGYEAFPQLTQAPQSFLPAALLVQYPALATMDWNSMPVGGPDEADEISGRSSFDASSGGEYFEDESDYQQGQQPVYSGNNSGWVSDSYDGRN
Test: EMSA; 15 mM HEPES pH 7.6, 0.2 mM MgCl2, 35 mM KCl, 1 mM DTT, 1% glycerol, 1 mg poly(dI-dC) (so in the source), 10 ng labelled DNA, 30 uL, 25 min, room temperature; 6% native PAGE
Conditions: protein: recombinant; tags: His (pET28a(+)); label: 32P end label; blunt

B1: WT CDRE (GRF/GRR), 58 bp (dsDNA)
DNA 1: CTCCAGCCATCGAGCCCCACCACCAATTGGGCCGCCAGTGAGAGCCCCAAGGCCGTCC
DNA 2: GGACGGCCTTGGGGCTCTCACTGGCGGCCCAATTGGTGGTGGGGCTCGATGGCTGGAG
binding result: binds
